According to publication PMC9399289:

Target: T1, GST-SDE2-FLAG WT (human) (UniProt Q6IQ49)
T1 sequence: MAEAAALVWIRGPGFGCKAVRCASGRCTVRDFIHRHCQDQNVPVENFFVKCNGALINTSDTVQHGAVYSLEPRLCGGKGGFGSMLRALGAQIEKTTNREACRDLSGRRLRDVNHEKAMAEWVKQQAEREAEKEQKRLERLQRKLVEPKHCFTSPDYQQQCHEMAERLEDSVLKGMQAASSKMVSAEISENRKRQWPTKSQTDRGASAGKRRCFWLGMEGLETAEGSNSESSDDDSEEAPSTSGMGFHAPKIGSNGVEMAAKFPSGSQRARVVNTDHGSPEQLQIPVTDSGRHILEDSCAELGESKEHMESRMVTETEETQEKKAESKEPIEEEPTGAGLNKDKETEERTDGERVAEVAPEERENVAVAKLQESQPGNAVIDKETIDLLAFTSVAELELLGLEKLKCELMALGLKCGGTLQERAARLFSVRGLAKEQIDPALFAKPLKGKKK
Test: fluorescence anisotropy
Conditions: EMSA: 10 mM Tris-HCl pH 7.5, 50 mM NaCl, 0.5 mM DTT, 0.05 mM EDTA, 3% glycerol, 0.05 mg/ml BSA (or 50 mM Na/K PO4 pH 6.0, 50 mM NaCl, 5 mM DTT), on ice …

GACGCTGCCGAATTCTACCAGTGCCTTGCTAGGACATCTTTGCCCACCTGCAGGTTCACCC (double strand) [60-mer dsDNA (EMSA1/EMSA2)]
Kd: 24.2 µM
